Here are results for seven molecules from EP2974737A1 (Ablynx N.V., dated 2016).

What all share (experiment): SPR, interference factor immobilized; % of Fig. 9 reference
Assay [1] concerns the target T1, purified interference factor(s) from Donor C (human).
T1 construct: the text names the donors 8, 19 and 30; also called interference in serum from Donor C

In assay [2] the target is T2, purified interference factor(s) from Donor A (human).
T2 construct: also called interference in serum from Donor A

The target of assay [3] is T3, purified interference factor(s) from Donor B (human).
T3 construct: the text names the donors 8, 19 and 30; also called interference in serum from Donor B

B1: SEQ ID NO: 83 (VHH)
VHH: EVQLVESGGGLVQPGGSLRLSCAASRSIGRLDRMGWYRHRPGEPRELVATITGGSSINYGDSVKGRFTISIDNSKNTVYLQMNSLRPEDAAVYYCNFNKYVTSRDTWGQGTLVTVSS
Turning to B1, the “interference binding, % of Reference Sequence” value (“interference binding, %” below) in assay [1] was found to be 61%; in assay [2], 56%; in assay [3] it was 73%.

B2: SEQ ID NO: 85 (VHH)
VHH: EVQLVESGGGSVQPGGSLRLSCAASRSIGRLDRMGWYRHRPGEPRELVATITGGSSINYGDSVKGRFTISIDNSKNTVYLQMNSLRPEDTAVYYCNFNKYVTSRDTWGQGTLVQVGG
Consider B2, for which the results for the “interference binding, %” value in assay [1], in assay [2] and in assay [3] were 42%, 46% and 5%, respectively.

B3: SEQ ID NO: 88 (VHH)
VHH: EVQLVESGGGSVQPGGSLRLSCAASRSIGRLDRMGWYRHRPGEPRELVATITGGSSINYGDSVKGRFTISIDNSKNTVYLQMNSLRPEDTAVYYCNFNKYVTSRDTWGQGTLVQVSS
As for B3, the “interference binding, %” value in assay [1] was determined as 11%; in assay [2] it was 1%; in assay [3] it was 5%.

B4: SEQ ID NO: 89 (VHH)
VHH: EVQLVESGGGSVQAGGSLRLSCAASRSIGRLDRMGWYRHRPGEPRELVATITGGSSINYGDSVKGRFTISIDNSKNTVYLQMNSLRPEDTAVYYCNFNKYVTSRDTWGQGTLVQVGG
Take B4: the entries for the “interference binding, %” value in assay [1], in assay [2] and in assay [3] were 17%, 14% and 5%, respectively.

B5: SEQ ID NO: 87 (VHH)
VHH: EVQLVESGGGSVQPGGSLRLSCAASRSIGRLDRMGWYRHRPGEPRELVATITGGSSINYGDSVKGRFTISIDNSKNTVYLQMNSLRPEDTAVYYCNFNKYVTSRDTWGQGTLVTVGG
As for B5, the “interference binding, %” value in assay [1] is 39%; in assay [2], 51%; in assay [3], 5%.

B6: SEQ ID NO: 84 (VHH)
VHH: EVQLVESGGGLVQPGGSLRLSCAASRSIGRLDRMGWYRHRPGEPRELVATITGGSSINYGDSVKGRFTISIDNSKNTVYLQMNSLRPEDTAVYYCNFNKYVTSRDTWGQGTLVTVGS
In the case of B6, the results for the “interference binding, %” value in assay [1], in assay [2] and in assay [3] were 83%, 84% and 50%, respectively.

B7: SEQ ID NO: 86 (VHH)
VHH: EVQLVESGGGSVQPGGSLRLSCAASRSIGRLDRMGWYRHRPGEPRELVATITGGSSINYGDSVKGRFTISIDNSKNTVYLQMNSLRPEDTAVYYCNFNKYVTSRDTWGQGTLVQVSS
Regarding B7, the results for the “interference binding, %” value in assay [1], in assay [2] and in assay [3] were 86%, 76% and 6%, respectively.
